The values that follow come from publication PMC6633398.

Experiment [1] deals with CASP (encoded by CUX1; isoform 4) (UniProt Q13948). In words: co-immunoprecipitation (IP: c-Myc) from cytosol, western blot quantification. The conditions noted are these: absence of detergent, n=4, parent: est. 1.0, read off a plot.
Experiment [2] has as its target golgin-84 (also known as GOLGA5) (UniProt Q8TBA6). The description is as above. The conditions noted are these: absence of detergent, n=4, parent: est. 1.0, read off a plot.

Sequence of CASP (encoded by CUX1; isoform 4) (Q13948 whole entry, canonical isoform): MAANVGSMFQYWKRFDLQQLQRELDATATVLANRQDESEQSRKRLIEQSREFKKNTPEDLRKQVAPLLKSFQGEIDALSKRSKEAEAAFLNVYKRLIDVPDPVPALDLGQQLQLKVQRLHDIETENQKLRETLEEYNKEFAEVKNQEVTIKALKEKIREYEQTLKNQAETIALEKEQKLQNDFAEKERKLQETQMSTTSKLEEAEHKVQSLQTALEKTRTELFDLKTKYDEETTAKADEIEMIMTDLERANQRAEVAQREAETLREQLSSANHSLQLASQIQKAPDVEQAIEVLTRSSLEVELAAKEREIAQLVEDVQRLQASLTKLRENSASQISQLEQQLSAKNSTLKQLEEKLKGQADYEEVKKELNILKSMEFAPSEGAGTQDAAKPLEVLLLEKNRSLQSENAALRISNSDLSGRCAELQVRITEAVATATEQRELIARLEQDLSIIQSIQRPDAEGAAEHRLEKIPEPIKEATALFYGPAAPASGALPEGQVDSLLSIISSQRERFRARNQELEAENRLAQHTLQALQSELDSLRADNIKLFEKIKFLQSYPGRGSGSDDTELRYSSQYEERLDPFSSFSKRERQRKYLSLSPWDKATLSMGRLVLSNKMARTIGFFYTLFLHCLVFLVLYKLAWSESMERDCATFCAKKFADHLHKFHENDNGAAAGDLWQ
Sequence of golgin-84 (also known as GOLGA5) (Q8TBA6 whole entry): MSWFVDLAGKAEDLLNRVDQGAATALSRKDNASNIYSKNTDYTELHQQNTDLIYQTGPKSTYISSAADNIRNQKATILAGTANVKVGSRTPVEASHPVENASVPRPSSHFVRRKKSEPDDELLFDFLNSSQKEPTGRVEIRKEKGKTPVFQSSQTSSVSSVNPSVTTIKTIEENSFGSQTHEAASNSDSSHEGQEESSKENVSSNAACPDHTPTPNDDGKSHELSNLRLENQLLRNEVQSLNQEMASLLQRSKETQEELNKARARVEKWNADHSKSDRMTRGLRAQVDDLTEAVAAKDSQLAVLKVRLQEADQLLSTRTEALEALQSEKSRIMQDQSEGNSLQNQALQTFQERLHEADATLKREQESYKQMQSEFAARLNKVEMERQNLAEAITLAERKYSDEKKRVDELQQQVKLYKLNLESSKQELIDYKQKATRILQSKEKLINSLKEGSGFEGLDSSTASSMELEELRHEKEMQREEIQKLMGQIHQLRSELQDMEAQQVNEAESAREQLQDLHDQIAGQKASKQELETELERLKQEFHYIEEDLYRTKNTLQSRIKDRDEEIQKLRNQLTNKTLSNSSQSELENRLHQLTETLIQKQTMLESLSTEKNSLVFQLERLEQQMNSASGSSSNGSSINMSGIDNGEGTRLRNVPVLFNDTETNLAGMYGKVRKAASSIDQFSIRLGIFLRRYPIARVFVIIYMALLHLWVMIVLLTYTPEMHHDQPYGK
Sequence of c-Myc–TRC40 (wild-type TRC40, also known as ASNA1), O43681 D74E; L190D; I193D (O43681 whole entry D74E/L190D/I193D): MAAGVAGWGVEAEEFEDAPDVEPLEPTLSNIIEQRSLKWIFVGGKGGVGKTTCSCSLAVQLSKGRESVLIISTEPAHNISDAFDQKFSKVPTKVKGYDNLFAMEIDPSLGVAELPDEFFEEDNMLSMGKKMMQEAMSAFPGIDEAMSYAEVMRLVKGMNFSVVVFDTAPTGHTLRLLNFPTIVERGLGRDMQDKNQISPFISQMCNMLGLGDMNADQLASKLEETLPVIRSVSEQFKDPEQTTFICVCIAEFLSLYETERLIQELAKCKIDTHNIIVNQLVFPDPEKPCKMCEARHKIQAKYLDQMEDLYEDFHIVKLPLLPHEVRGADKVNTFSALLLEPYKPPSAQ
Sequence of c-Myc–TRC40 (wild-type TRC40, also known as ASNA1), O43681 D74E; L190K; I193K (O43681 whole entry D74E/L190K/I193K): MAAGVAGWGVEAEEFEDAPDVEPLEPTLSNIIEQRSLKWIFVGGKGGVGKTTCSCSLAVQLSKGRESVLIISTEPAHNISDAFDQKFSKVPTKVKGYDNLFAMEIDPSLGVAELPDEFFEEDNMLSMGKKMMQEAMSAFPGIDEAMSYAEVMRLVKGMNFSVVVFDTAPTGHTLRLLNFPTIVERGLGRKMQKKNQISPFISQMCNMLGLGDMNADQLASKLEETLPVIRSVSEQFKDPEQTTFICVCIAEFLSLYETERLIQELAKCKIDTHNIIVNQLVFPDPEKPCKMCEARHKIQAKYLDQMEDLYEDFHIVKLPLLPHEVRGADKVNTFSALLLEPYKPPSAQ
Sequence of c-Myc–TRC40 (wild-type TRC40, also known as ASNA1), O43681 D74E (O43681 whole entry D74E): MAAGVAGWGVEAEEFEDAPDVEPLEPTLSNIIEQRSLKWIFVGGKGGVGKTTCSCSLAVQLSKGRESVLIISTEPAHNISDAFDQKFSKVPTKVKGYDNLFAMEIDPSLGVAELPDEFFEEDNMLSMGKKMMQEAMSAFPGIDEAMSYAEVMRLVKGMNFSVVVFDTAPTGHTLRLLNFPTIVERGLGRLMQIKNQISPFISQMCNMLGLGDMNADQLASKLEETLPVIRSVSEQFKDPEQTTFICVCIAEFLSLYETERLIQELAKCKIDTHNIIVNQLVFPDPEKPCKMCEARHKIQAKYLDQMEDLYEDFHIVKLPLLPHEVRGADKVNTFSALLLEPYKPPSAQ

Turning to “c-Myc–TRC40 (wild-type TRC40, also known as ASNA1), O43681 D74E”, the ratio to parent in experiment [1] is 4.7; in experiment [2], 13.

For the substance “c-Myc–TRC40 (wild-type TRC40, also known as ASNA1), O43681 D74E; L190D; I193D”, the ratio to parent is 23 in experiment [1] and 21 in experiment [2].

Take “c-Myc–TRC40 (wild-type TRC40, also known as ASNA1), O43681 D74E; L190K; I193K”: the ratio to parent is 14 in experiment [1] and 9 in experiment [2].
